# Measured values published in publication PMC8481097.
# Tests used:
# Experiment in all cases: fluorescence polarisation
# [1] = biological target: TAMRA-labeled SARS-CoV-2 nsp1 R124A/K125A (SARS-CoV-2) (UniProt P0DTD1)
# [2] = biological target: TAMRA-labeled SARS-CoV-2 nsp1 C-K (wild type) (SARS-CoV-2) (UniProt P0DTD1)
# [3] = biological target: TAMRA-labeled SARS-CoV-2 nsp1 R99A (SARS-CoV-2) (UniProt P0DTD1)
substance,measurement,setting,value
purified ribosomes (crude 80S from HeLa cell lysate) (complex),fold increase in KD against WT nsp1,[1],2.2 fold
same,Kd,[2],29.4 nM
same,fold increase in KD against WT nsp1,[3],1.8 fold
